Measurements: ChEMBL document CHEMBL1649315, “Extended-spectrum cephalosporinase in Acinetobacter baumannii” (Antimicrob Agents Chemother, 2010)
≈ marks a conversion by molar mass, not a printed value.

Legend:
Escherichia coli [1] = assay: Antimicrobial activity against Escherichia coli TOP10 harboring pADC-33 plasmid carrying entire blaAmpC gene with alanine residue deletion at 215 position by Etest method in presence of clavulanic acid; format: functional
Escherichia coli [2] = assay: Antimicrobial activity against Escherichia coli TOP10 harboring pADC-11 plasmid by Etest method in presence of clavulanic acid; format: functional
Acinetobacter baumannii [3] = assay: Antimicrobial activity against Acinetobacter baumannii KI by Etest method in presence of clavulanic acid; format: functional
Escherichia coli [4] = assay: Antimicrobial activity against Escherichia coli TOP10 harboring pADC-11 plasmid carrying entire blaAmpC gene with alanine residue deletion at 215 position and R210P substitution by Etest method in presence of clavulanic acid; format: functional
Escherichia coli [5] = assay: Antimicrobial activity against Escherichia coli TOP10 harboring pADC-11 plasmid carrying entire blaAmpC gene with alanine residue insertion at 215 position and R210P substitution by Etest method; format: functional
Escherichia coli [6] = assay: Antimicrobial activity against Escherichia coli TOP10 harboring pADC-11 plasmid carrying entire blaAmpC gene with alanine residue insertion at 215 position by Etest method in presence of clavulanic acid; format: functional
Acinetobacter baumannii [7] = assay: Antimicrobial activity against Acinetobacter baumannii AYE expressing VEB-1 gene by Etest method in presence of clavulanic acid; format: functional
Acinetobacter baumannii [8] = assay: Antimicrobial activity against Acinetobacter baumannii AYE expressing VEB-1 gene by Etest method; format: functional
Escherichia coli [9] = assay: Antimicrobial activity against Escherichia coli TOP10 harboring pADC-11 plasmid carrying entire blaAmpC gene with alanine residue insertion at 215 position by Etest method; format: functional
Acinetobacter baumannii [10] = assay: Antimicrobial activity against Acinetobacter baumannii CIP70.10 by Etest method in presence of clavulanic acid; format: functional
Escherichia coli [11] = assay: Antimicrobial activity against Escherichia coli TOP10 harboring pADC-11 plasmid with entire blaAmpC gene by Etest method; format: functional
Escherichia coli [12] = assay: Antimicrobial activity against Escherichia coli TOP10 harboring pTOPO plasmid by Etest method; format: functional
Escherichia coli [13] = assay: Antimicrobial activity against Escherichia coli TOP10 harboring pADC-50 plasmid by Etest method in presence of clavulanic acid; format: functional
Escherichia coli [14] = assay: Antimicrobial activity against Escherichia coli TOP10 harboring pADC-33 plasmid carrying entire blaAmpC gene with alanine residue deletion at 215 position and R210P substitution by Etest method in presence of clavulanic acid; format: functional
Escherichia coli [15] = assay: Antimicrobial activity against Escherichia coli TOP10 harboring pADC-33 plasmid carrying entire blaAmpC gene with alanine residue deletion at 215 position and R210P substitution by Etest method; format: functional
Escherichia coli [16] = assay: Antimicrobial activity against Escherichia coli TOP10 harboring pADC-33 plasmid with entire blaAmpC gene by Etest method; format: functional
Acinetobacter baumannii [17] = assay: Antimicrobial activity against Acinetobacter baumannii KI by Etest method; format: functional
Escherichia coli [18] = assay: Antimicrobial activity against Escherichia coli TOP10 harboring pTOPO plasmid by Etest method in presence of clavulanic acid; format: functional
Escherichia coli [19] = assay: Antimicrobial activity against Escherichia coli TOP10 harboring pADC-33 plasmid carrying entire blaAmpC gene by Etest method in presence of clavulanic acid; format: functional
Escherichia coli [20] = assay: Antimicrobial activity against Escherichia coli TOP10 harboring pADC-33 plasmid by Etest method; format: functional
Escherichia coli [21] = assay: Antimicrobial activity against Escherichia coli TOP10 harboring pADC-50 plasmid by Etest method; format: functional
Escherichia coli [22] = assay: Antimicrobial activity against Escherichia coli TOP10 harboring pADC-33 plasmid with entire blaAmpC gene with alanine residue deletion at 215 position by Etest method; format: functional
Escherichia coli [23] = assay: Antimicrobial activity against Escherichia coli TOP10 harboring pADC-33 plasmid by Etest method in presence of clavulanic acid; format: functional
Escherichia coli [24] = assay: Antimicrobial activity against Escherichia coli TOP10 harboring pADC-11 plasmid carrying entire blaAmpC gene by Etest method in presence of clavulanic acid; format: functional
Acinetobacter baumannii [25] = assay: Antimicrobial activity against Acinetobacter baumannii CIP70.10 by Etest method; format: functional
Escherichia coli [26] = assay: Antimicrobial activity against Escherichia coli TOP10 harboring pADC-11 plasmid by Etest method; format: functional
[27] = system: CCN1CCN(C(=O)N[C@@H](C(=O)N[C@@H]2C(=O)N3[C@@H]2SC(C)(C)[C@@H]3C(=O)O)c2ccccc2)C(=O)C1=O; assay: (§1) Ratio of Kcat to Km for Acinetobacter baumannii ADC-11 beta-lactamase
[28] = system: CC(C)(O/N=C(\C(=O)N[C@@H]1C(=O)N2C(C(=O)[O-])=C(C[n+]3ccccc3)CS[C@H]12)c1csc(N)n1)C(=O)O; assay: as §1
[29] = system: CC1(C)S[C@@H]2[C@H](NC(=O)[C@H](N)c3ccccc3)C(=O)N2[C@H]1C(=O)O; assay: as §1
[30] = system: CC1(C)S[C@@H]2[C@H](NC(=O)Cc3ccccc3)C(=O)N2[C@H]1C(=O)O; assay: as §1
[31] = system: CO/N=C(\C(=O)N[C@@H]1C(=O)N2C(C(=O)[O-])=C(C[n+]3cccc4c3CCC4)CS[C@H]12)c1csc(N)n1; assay: as §1
[32] = system: CO[C@@]1(NC(=O)Cc2cccs2)C(=O)N2C(C(=O)O)=C(COC(N)=O)CS[C@@H]21; assay: Ratio of Kcat to Ki for Acinetobacter baumannii ADC-11 beta-lactamase
[33] = system: CCN1CCN(C(=O)N[C@@H](C(=O)N[C@@H]2C(=O)N3[C@@H]2SC(C)(C)[C@@H]3C(=O)O)c2ccccc2)C(=O)C1=O; assay: (§2) Activity of Acinetobacter baumannii ADC-11 beta-lactamase
[34] = system: CC(C)(O/N=C(\C(=O)N[C@@H]1C(=O)N2C(C(=O)[O-])=C(C[n+]3ccccc3)CS[C@H]12)c1csc(N)n1)C(=O)O; assay: as §2
[35] = system: CC1(C)S[C@@H]2[C@H](NC(=O)[C@H](N)c3ccccc3)C(=O)N2[C@H]1C(=O)O; assay: as §2
[36] = system: CC(=O)OCC1=C(C(=O)O)N2C(=O)[C@@H](NC(=O)Cc3cccs3)[C@H]2SC1; assay: as §2
[37] = system: CC1(C)S[C@@H]2[C@H](NC(=O)Cc3ccccc3)C(=O)N2[C@H]1C(=O)O; assay: as §2
[38] = system: CO/N=C(\C(=O)N[C@@H]1C(=O)N2C(C(=O)[O-])=C(C[n+]3cccc4c3CCC4)CS[C@H]12)c1csc(N)n1; assay: as §2
[39] = system: O=C(Cc1cccs1)N[C@@H]1C(=O)N2C(C(=O)[O-])=C(C[n+]3ccccc3)CS[C@H]12; assay: as §2
[40] = system: CO/N=C(\C(=O)N[C@@H]1C(=O)N2C(C(=O)O)=C(COC(C)=O)CS[C@H]12)c1csc(N)n1; assay: as §2
[41] = system: CO[C@@]1(NC(=O)Cc2cccs2)C(=O)N2C(C(=O)O)=C(COC(N)=O)CS[C@@H]21; assay: (§3) Ratio of Kcat to Ki for Acinetobacter baumannii ADC-33 beta-lactamase
[42] = system: CO/N=C(\C(=O)N[C@@H]1C(=O)N2C(C(=O)O)=C(COC(C)=O)CS[C@H]12)c1csc(N)n1; assay: as §3
[43] = system: CCN1CCN(C(=O)N[C@@H](C(=O)N[C@@H]2C(=O)N3[C@@H]2SC(C)(C)[C@@H]3C(=O)O)c2ccccc2)C(=O)C1=O; assay: (§4) Activity of Acinetobacter baumannii ADC-33 beta-lactamase
[44] = system: CC(C)(O/N=C(\C(=O)N[C@@H]1C(=O)N2C(C(=O)[O-])=C(C[n+]3ccccc3)CS[C@H]12)c1csc(N)n1)C(=O)O; assay: as §4
[45] = system: CC1(C)S[C@@H]2[C@H](NC(=O)[C@H](N)c3ccccc3)C(=O)N2[C@H]1C(=O)O; assay: as §4
[46] = system: CC(=O)OCC1=C(C(=O)O)N2C(=O)[C@@H](NC(=O)Cc3cccs3)[C@H]2SC1; assay: as §4
[47] = system: CC1(C)S[C@@H]2[C@H](NC(=O)Cc3ccccc3)C(=O)N2[C@H]1C(=O)O; assay: as §4
[48] = system: CO[C@@]1(NC(=O)Cc2cccs2)C(=O)N2C(C(=O)O)=C(COC(N)=O)CS[C@@H]21; assay: as §4
[49] = system: CO/N=C(\C(=O)N[C@@H]1C(=O)N2C(C(=O)[O-])=C(C[n+]3cccc4c3CCC4)CS[C@H]12)c1csc(N)n1; assay: as §4
[50] = system: O=C(Cc1cccs1)N[C@@H]1C(=O)N2C(C(=O)[O-])=C(C[n+]3ccccc3)CS[C@H]12; assay: as §4
[51] = system: CCN1CCN(C(=O)N[C@@H](C(=O)N[C@@H]2C(=O)N3[C@@H]2SC(C)(C)[C@@H]3C(=O)O)c2ccccc2)C(=O)C1=O; assay: (§5) Ratio of Kcat to Km for Acinetobacter baumannii ADC-33 beta-lactamase
[52] = system: CC1(C)S[C@@H]2[C@H](NC(=O)[C@H](N)c3ccccc3)C(=O)N2[C@H]1C(=O)O; assay: as §5
[53] = system: CC(=O)OCC1=C(C(=O)O)N2C(=O)[C@@H](NC(=O)Cc3cccs3)[C@H]2SC1; assay: as §5
[54] = system: CC1(C)S[C@@H]2[C@H](NC(=O)Cc3ccccc3)C(=O)N2[C@H]1C(=O)O; assay: as §5
[55] = system: CO/N=C(\C(=O)N[C@@H]1C(=O)N2C(C(=O)[O-])=C(C[n+]3cccc4c3CCC4)CS[C@H]12)c1csc(N)n1; assay: as §5
[56] = system: O=C(Cc1cccs1)N[C@@H]1C(=O)N2C(C(=O)[O-])=C(C[n+]3ccccc3)CS[C@H]12; assay: as §5

CC1(C)S[C@@H]2[C@H](NC(=O)[C@H](C(=O)O)c3ccsc3)C(=O)N2[C@H]1C(=O)O [TICARCILLIN]
MIC (Escherichia coli [1]): 128 µg/mL
MIC (Escherichia coli [2]): 8 µg/mL
MIC (Acinetobacter baumannii [3]): 64 µg/mL
MIC (Escherichia coli [4]): > 256 µg/mL
MIC (Escherichia coli [5]): > 256 µg/mL
MIC (Escherichia coli [6]): > 256 µg/mL
MIC (Acinetobacter baumannii [7]): 128 µg/mL
MIC (Acinetobacter baumannii [8]): > 256 µg/mL
MIC (Escherichia coli [9]): > 256 µg/mL
MIC (Acinetobacter baumannii [10]): 8 µg/mL
MIC (Escherichia coli [11]): 256 µg/mL (≈ 666 µM)
MIC (Escherichia coli [12]): 2 µg/mL (≈ 5.2 µM)
MIC (Escherichia coli [13]): 8 µg/mL
MIC (Escherichia coli [14]): 128 µg/mL
MIC (Escherichia coli [15]): 128 µg/mL (≈ 333 µM)
MIC (Escherichia coli [16]): > 256 µg/mL
MIC (Acinetobacter baumannii [17]): > 256 µg/mL
MIC (Escherichia coli [18]): 2 µg/mL
MIC (Escherichia coli [19]): > 256 µg/mL
MIC (Escherichia coli [20]): 64 µg/mL (≈ 166 µM)
MIC (Escherichia coli [21]): 8 µg/mL (≈ 20.8 µM)
MIC (Escherichia coli [22]): 128 µg/mL (≈ 333 µM)
MIC (Escherichia coli [23]): 64 µg/mL
MIC (Escherichia coli [24]): 256 µg/mL
MIC (Acinetobacter baumannii [25]): 8 µg/mL (≈ 20.8 µM)
MIC (Escherichia coli [26]): 8 µg/mL (≈ 20.8 µM)

ADC-11 (Acinetobacter baumannii) (from UniProt D6NSM8)
kcat/Km [27]: 200000 M⁻¹ s⁻¹
kcat/Km [28]: 1000 M⁻¹ s⁻¹
kcat/Km [29]: 1e+06 M⁻¹ s⁻¹
kcat/Km [30]: 4e+06 M⁻¹ s⁻¹
kcat/Km [31]: 4000 M⁻¹ s⁻¹
kcat/Km [32]: 3e+06 M⁻¹ s⁻¹
kcat [33]: 5 s⁻¹
Km [34]: 10 µM
kcat [34]: 0.01 s⁻¹
Km [35]: 7 µM
kcat [35]: 5 s⁻¹
Km [36]: 210 µM
kcat [36]: 550 s⁻¹
Km [37]: 12 µM
kcat [37]: 45 s⁻¹
Km [38]: 1700 µM
kcat [38]: 8 s⁻¹
kcat [39]: 600 s⁻¹
kcat [40]: 0.2 s⁻¹

Beta-lactamase ADC-33 (Acinetobacter baumannii) (from UniProt B2ZTR6)
kcat/Km [41]: 3e+06 M⁻¹ s⁻¹
kcat/Km [42]: 2e+06 M⁻¹ s⁻¹
Km [43]: 16 µM
kcat [43]: 4 s⁻¹
Km [44]: 30 µM
kcat [44]: 4 s⁻¹
Km [45]: 9 µM
kcat [45]: 4 s⁻¹
Km [46]: 120 µM
kcat [46]: 140 s⁻¹
Km [47]: 3 µM
kcat [48]: 0.3 s⁻¹
Km [49]: 700 µM
kcat [49]: 35 s⁻¹
Km [50]: 100 µM
kcat [50]: 220 s⁻¹
kcat/Km [51]: 250000 M⁻¹ s⁻¹
kcat/Km [52]: 500000 M⁻¹ s⁻¹
kcat/Km [53]: 1e+06 M⁻¹ s⁻¹
kcat/Km [54]: 5e+06 M⁻¹ s⁻¹
kcat/Km [55]: 50000 M⁻¹ s⁻¹
kcat/Km [56]: 2e+06 M⁻¹ s⁻¹
